# Data from the Immune Epitope Database (IEDB).
# Assays:
# HLA-B*40:02 = assay: IEDB peptide-MHC binding, purified MHC/competitive/radioactivity; filed as Kd, often an IC50 or EC50 that approximates it; ≥ and ≤ were set here for values at or beyond the usual limits of such assays
# HLA-B*45:01 = assay: as above
# HLA-B*18:01 [1] = assay: as above
# HLA-B*44:03 = assay: as above
# HLA-B*44:02 = assay: as above
# HLA-B*40:01 [2] = assay: as above
# HLA-B*18:01 [3] = assay: IEDB peptide-MHC binding, purified MHC/direct/fluorescence; filed as Kd, often an IC50 or EC50 that approximates it; ≥ and ≤ were set here for values at or beyond the usual limits of such assays
# HLA-A*69:01 = assay: as above; details: source organism: Pseudomonas aeruginosa
# HLA-B*58:01 = assay: as above; details: source organism: Pseudomonas aeruginosa
# HLA-B*07:02 = assay: as above; details: source organism: Pseudomonas aeruginosa
# HLA-A*11:01 = assay: as above; details: source organism: Pseudomonas aeruginosa
# HLA-B*15:01 [4] = assay: as above; details: source organism: Pseudomonas aeruginosa
# HLA-A*02:01 = assay: as above; details: source organism: Pseudomonas aeruginosa
# HLA-A*01:01 = assay: as above; details: source organism: Pseudomonas aeruginosa
# HLA-A*31:01 = assay: as above; details: source organism: Pseudomonas aeruginosa
# HLA-A*26:01 [5] = assay: as above; details: source organism: Pseudomonas aeruginosa
# HLA-A*03:01 [6] = assay: as above; details: source organism: Pseudomonas aeruginosa
# HLA-B*08:01 = assay: as above; details: source organism: Pseudomonas aeruginosa
# HLA-B*40:01 [7] = assay: as above; details: source organism: Pseudomonas aeruginosa
# HLA-B*27:05 = assay: as above; details: source organism: Pseudomonas aeruginosa
# HLA-B*39:01 = assay: IEDB peptide-MHC binding, purified MHC/competitive/fluorescence; filed as Kd, often an IC50 or EC50 that approximates it; ≥ and ≤ were set here for values at or beyond the usual limits of such assays; details: source organism: Pseudomonas aeruginosa PAO1
# HLA-B*46:01 = assay: IEDB peptide-MHC binding, purified MHC/direct/fluorescence; filed as Kd, often an IC50 or EC50 that approximates it; ≥ and ≤ were set here for values at or beyond the usual limits of such assays; details: source organism: Yellow fever virus
# HLA-B*15:01 [8] = assay: IEDB peptide-MHC binding, purified MHC/competitive/fluorescence; filed as Kd, often an IC50 or EC50 that approximates it; ≥ and ≤ were set here for values at or beyond the usual limits of such assays; details: source organism: Yersinia bercovieri ATCC 43970
# HLA-A*26:01 [9] = assay: as above; details: source organism: Yersinia bercovieri ATCC 43970
# HLA-A*03:01 [10] = assay: as above; details: source organism: Yersinia bercovieri ATCC 43970
# [11] = source organism: Mammarenavirus lassaense
# [12] = source organism: Mammarenavirus juninense
# [13] = source organism: SARS coronavirus Tor2
# [14] = source organism: Lymphocytic choriomeningitis virus (strain Armstrong)
# [15] = source organism: Dengue virus 1 Brazil/97-11/1997
Sequence,Kd (HLA-B*40:02; [13]) [nM],Kd (HLA-B*45:01; [13]) [nM],Kd (HLA-B*18:01 [1]; [13]) [nM],Kd (HLA-B*44:03; [13]) [nM],Kd (HLA-B*44:02; [13]) [nM],Kd (HLA-B*40:01 [2]; [13]) [nM],further results
HDLMKQKCL,–,–,–,–,–,–,Kd (HLA-B*40:02; [11]): 1570 nM; Kd (HLA-B*45:01; [11]): 19100 nM; Kd (HLA-B*18:01 [1]; [11]): ≥ 77500 nM; Kd (HLA-B*44:03; [11]): ≥ 78100 nM; Kd (HLA-B*44:02; [11]): ≥ 77900 nM; Kd (HLA-B*40:01 [2]; [11]): ≥ 40000 nM
HDWHLDPPF,–,–,–,–,–,–,Kd (HLA-B*40:02; [12]): 22.1 nM; Kd (HLA-B*45:01; [12]): ≥ 77700 nM; Kd (HLA-B*18:01 [1]; [12]): 2390 nM; Kd (HLA-B*44:03; [12]): 7960 nM; Kd (HLA-B*44:02; [12]): 18500 nM; Kd (HLA-B*40:01 [2]; [12]): ≥ 72000 nM
HESFDLAGLF,–,–,–,–,–,–,Kd (HLA-B*40:02; [12]): 435 nM; Kd (HLA-B*45:01; [12]): 1760 nM; Kd (HLA-B*18:01 [1]; [12]): 1140 nM; Kd (HLA-B*44:03; [12]): 776 nM; Kd (HLA-B*44:02; [12]): 175 nM; Kd (HLA-B*40:01 [2]; [12]): 1980 nM
KDCVMYASAL,3290,≥ 70000,≥ 70500,11900,10700,≥ 60500,–
KDLQRLRSL,–,–,–,–,–,–,Kd (HLA-B*40:02; [14]): 165 nM; Kd (HLA-B*45:01; [14]): ≥ 43100 nM; Kd (HLA-B*18:01 [1]; [14]): 5860 nM; Kd (HLA-B*44:03; [14]): ≥ 66000 nM; Kd (HLA-B*44:02; [14]): ≥ 43600 nM; Kd (HLA-B*40:01 [2]; [14]): 4490 nM
MEVQLIRQM,–,–,–,–,–,–,Kd (HLA-B*18:01 [3]; source organism: dengue virus type 1): 1.5 nM; Kd (HLA-B*44:03; [15]): 18.9 nM; Kd (HLA-B*44:02; [15]): 17.3 nM
QEAYEQAVA,1200,14.9,3870,6860,17300,≥ 26000,–
QELGHEDLM,3000,2740,≥ 31800,3710,15400,5540,–
REFLTRNPAW,23.5,569,≥ 33400,5.83,4.02,50.2,–
SEQGEFKLL,–,–,–,–,–,–,Kd (HLA-B*18:01 [3]; source organism: Yellow fever virus 17D): 875 nM
SEYKAAGYL,–,–,–,–,–,–,Kd (HLA-A*69:01): ≥ 20000 nM; Kd (HLA-B*58:01): ≥ 20000 nM; Kd (HLA-B*07:02): ≥ 20000 nM; Kd (HLA-A*11:01): ≥ 20000 nM; Kd (HLA-B*15:01 [4]): ≥ 20000 nM; Kd (HLA-A*02:01): ≥ 20000 nM; Kd (HLA-A*01:01): ≥ 20000 nM; Kd (HLA-A*31:01): ≥ 20000 nM; Kd (HLA-A*26:01 [5]): ≥ 20000 nM; Kd (HLA-A*03:01 [6]): ≥ 20000 nM; Kd (HLA-B*08:01): ≥ 20000 nM; Kd (HLA-B*40:01 [7]): 19.6 nM; Kd (HLA-B*27:05): ≥ 20000 nM; Kd (HLA-B*39:01): ≥ 20000 nM
SEYKGPVTDV,22.9,37.2,≥ 70500,795,17100,1000,–
STFVSAARQG,535,2010,8680,394,237,8590,–
VLIEVNPPF,–,–,–,–,–,–,Kd (HLA-B*46:01): ≥ 20000 nM
YENAFLPFT,36.4,93.6,112,857,1650,6120,–
YEQVVMDYL,30.2,3780,349,298,371,0.609,–
YIYDTAFKY,–,–,–,–,–,–,Kd (HLA-B*15:01 [8]): 173 nM; Kd (HLA-A*26:01 [9]): 264 nM; Kd (HLA-A*03:01 [10]): 3830 nM
